Results from patent US20250136688A1 (Janssen / Centocor, published 2025).

Key:
[1] = target: T1, ectonucleotide pyrophosphatase/phosphodiesterase family member 3 (ENPP3) (human, UniProt O14638 1-875); assay: cell-based or functional assay
T1 sequence (looked up): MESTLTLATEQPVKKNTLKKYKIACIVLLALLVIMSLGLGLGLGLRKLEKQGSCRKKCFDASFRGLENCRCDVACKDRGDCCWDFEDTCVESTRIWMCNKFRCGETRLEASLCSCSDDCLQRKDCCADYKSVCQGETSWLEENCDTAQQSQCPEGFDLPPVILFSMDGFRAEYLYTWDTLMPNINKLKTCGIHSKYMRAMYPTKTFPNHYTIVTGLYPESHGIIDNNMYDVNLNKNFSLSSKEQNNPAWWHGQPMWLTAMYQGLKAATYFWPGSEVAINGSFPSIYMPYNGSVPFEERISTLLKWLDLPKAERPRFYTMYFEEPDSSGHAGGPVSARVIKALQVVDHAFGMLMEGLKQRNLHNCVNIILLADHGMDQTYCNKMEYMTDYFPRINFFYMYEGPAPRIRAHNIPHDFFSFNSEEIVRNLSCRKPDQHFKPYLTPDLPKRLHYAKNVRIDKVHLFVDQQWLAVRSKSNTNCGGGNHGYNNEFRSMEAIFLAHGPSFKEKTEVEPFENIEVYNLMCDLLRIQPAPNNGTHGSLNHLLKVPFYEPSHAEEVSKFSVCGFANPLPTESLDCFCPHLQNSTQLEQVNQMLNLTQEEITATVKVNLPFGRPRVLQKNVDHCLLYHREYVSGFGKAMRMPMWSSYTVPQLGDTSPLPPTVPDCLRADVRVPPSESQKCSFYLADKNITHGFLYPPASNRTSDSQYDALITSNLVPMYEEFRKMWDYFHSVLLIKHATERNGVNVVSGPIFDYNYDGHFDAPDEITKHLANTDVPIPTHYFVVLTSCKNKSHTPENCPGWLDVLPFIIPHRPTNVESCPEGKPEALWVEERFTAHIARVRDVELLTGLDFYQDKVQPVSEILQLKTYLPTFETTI

[2] = target: T1, ectonucleotide …; assay: cell-based or functional assay; remark: listed apart in the source
[3] = target: T1, ectonucleotide …; assay: cell-based or functional assay; remark: listed apart in the source
[4] = target: T1, ectonucleotide …; assay: flow cytometry on A704 cells
[5] = target: T1, ectonucleotide …; assay: flow cytometry on VMRCRCW cells
[6] = target: ectonucleotide pyrophosphatase/phosphodiesterase family member 2 (ENPP2) (human, UniProt Q13822 36-863); assay: flow cytometry on CHOK1 cells overexpressing ENPP2
Human CD3 epsilon [7] = target: T2, Human CD3 epsilon (human, UniProt P07766 23-207); assay: flow cytometry on T cells of healthy human donor 110040278
T2 construct: Stood on human T cells (pan-T cells, isolated donor T cells) as part of the TCR/CD3 complex; the other chains of the complex are not written here; also called CD3ε; CD3R
T2 sequence (P07766 23-207 limits assumed): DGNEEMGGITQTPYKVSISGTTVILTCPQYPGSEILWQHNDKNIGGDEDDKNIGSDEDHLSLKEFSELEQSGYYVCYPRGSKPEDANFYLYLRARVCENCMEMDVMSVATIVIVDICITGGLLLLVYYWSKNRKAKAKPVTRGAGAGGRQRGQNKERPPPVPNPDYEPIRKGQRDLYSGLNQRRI

Human CD3 epsilon [8] = target: T2, Human CD3 epsilon; assay: flow cytometry on T cells of healthy human donor 110042593
Human CD3 epsilon [9] = target: T2, Human CD3 epsilon; assay: flow cytometry on T cells of healthy human donor 110044049
Human CD3 epsilon [10] = target: T2, Human CD3 epsilon; assay: flow cytometry on T cells of healthy human donor 110048457
Human CD3 epsilon [11] = target: T2, Human CD3 epsilon; assay: flow cytometry on T cells of healthy human donor 888668965

T-cell activation (Flow Cytometry) EC50, A704 [1]: 0.011 nM
T-cell activation (Flow Cytometry) EC50, HepG2 [1]: 0.041 nM
T-cell activation (Flow Cytometry) EC50, VMRCRCW [1]: 0.018 nM
T-cell activation EC50, A704, donor 110040278, E:T 3:1 [3]: 0.008 nM
T-cell activation EC50, A704, donor 110042496, E:T 3:1 [3]: 0.017 nM
T-cell activation EC50, A704, donor 110042593, E:T 3:1 [3]: 0.013 nM
T-cell activation EC50, A704, donor 110044049, E:T 3:1 [3]: 0.008 nM
T-cell activation EC50, A704, donor 110048457, E:T 3:1 [3]: 0.01 nM
T-cell activation EC50, A704, donor 888668965, E:T 3:1 [3]: 0.008 nM
T-cell activation EC50, VMRCRCW, donor 110040278, E:T 3:1 [3]: 0.007 nM
T-cell activation EC50, VMRCRCW, donor 110042496, E:T 3:1 [3]: 0.015 nM
T-cell activation EC50, VMRCRCW, donor 110042593, E:T 3:1 [3]: 0.017 nM
T-cell activation EC50, VMRCRCW, donor 110044049, E:T 3:1 [3]: 0.009 nM
T-cell activation EC50, VMRCRCW, donor 110048457, E:T 3:1 [3]: 0.009 nM
T-cell activation EC50, VMRCRCW, donor 888668965, E:T 3:1 [3]: 0.016 nM
EC50 [4]: 1.01 nM
EC50 [5]: 0.5 nM
binding result [6]: no binding
EC50 (Human CD3 epsilon [7]): 253 nM
EC50 (Human CD3 epsilon [8]): 146 nM
EC50 (Human CD3 epsilon [9]): 188 nM
EC50 (Human CD3 epsilon [10]): 132 nM
EC50 (Human CD3 epsilon [11]): 197 nM
B1: NPP3B815 (NPP3B56×CD3B2030-N106A-spFv) (bispecific antibody, human IgG1, kappa, L234A L235A)
chain: EIVLTQSPATLSASPGERVTLSCSASSSVSYMNWYQQKPGCAPRRWIYDSSKLASGVPARFSGSGSGRDYTLTISSLEPEDFAVYYCQQWSRNPPTFGGGTKVEIKGGGSGGSGGCPPCGGSGGQVQLVQSGAEVKKPGSSVKVSCKASGYTFTRSTMHWVKQAPGQGLEWIGYINPSSAYTNYNQKFQGRVTLTADKSTSTAYMELSSLRSEDTAVYYCASPQVHYDYAGFPYWGCGTLVTVSSEPKSSDKTHTCPPCPAPEAAGGPSVFLFPPKPKDTLMISRTPEVTCVVVSVSHEDPEVKFNWYVDGVEVHNAKTKPREEQYNSTYRVVSVLTVLHQDWLNGKEYKCKVSNKALPAPIEKTISKAKGQPREPQVYTLPPSREEMTKNQVSLWCLVKGFYPSDIAVEWESNGQPENNYKTTPPVLDSDGSFFLYSKLTVDKSRWQQGNVFSCSVMHEALHNHYTQKSLSLSPGK
heavy: EVQLVESGGGRVKPGGSLRLSCAASGFTFSDYSMNWVRQAPGKGLEWVSSISSISSYVKYADSVKGRFTMSRDNAKNSLFLQMNSLRDEDMAVYYCARGHYFDYWGQGTLVTVSSASTKGPSVFPLAPSSKSTSGGTAALGCLVKDYFPEPVTVSWNSGALTSGVHTFPAVLQSSGLYSLSSVVTVPSSSLGTQTYICNVNHKPSNTKVDKKVEPKSCDKTHTCPPCPAPEAAGGPSVFLFPPKPKDTLMISRTPEVTCVVVSVSHEDPEVKFNWYVDGVEVHNAKTKPREEQYNSTYRVVSVLTVLHQDWLNGKEYKCKVSNKALPAPIEKTISKAKGQPREPQVYTLPPSREEMTKNQVSLSCAVKGFYPSDIAVEWESNGQPENNYKTTPPVLDSDGSFFLVSKLTVDKSRWQQGNVFSCSVMHEALHNRFTQKSLSLSPGK
light: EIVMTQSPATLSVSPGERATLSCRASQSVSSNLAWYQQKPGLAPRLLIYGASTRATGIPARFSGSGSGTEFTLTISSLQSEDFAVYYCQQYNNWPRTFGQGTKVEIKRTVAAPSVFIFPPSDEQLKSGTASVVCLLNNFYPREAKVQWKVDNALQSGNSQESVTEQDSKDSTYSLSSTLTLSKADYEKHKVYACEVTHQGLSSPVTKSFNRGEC
notes: Heavy Chain 1 = anti-CD3 spFv-Fc (knob); Heavy Chain 2 and Light Chain = anti-ENPP3 Fab arm NPP3B56 (hole); IgG1 with L234A, L235A, D265S; also called ENPP3×CD3
Tumor cell killing (Incucyte) EC50, A704 [1]: 0.03 nM
Tumor cell killing (Incucyte) EC50, HepG2 [1]: 0.53 nM
Tumor cell killing (Incucyte) EC50, TUHR4TKB [1]: 0.05 nM
Tumor cell killing (Incucyte) EC50, TUHR10TKB [1]: 0.02 nM
Tumor cell killing (Incucyte) EC50, VMRCRCW [1]: 0.13 nM
killing EC50 @ 72 hrs, A704, T-cell donor 110040278, E:T 1:1 [2]: 0.075 nM
killing EC50 @ 72 hrs, A704, T-cell donor 110040278, E:T 3:1 [2]: 0.0484 nM
killing EC50 @ 72 hrs, A704, T-cell donor 110042496, E:T 1:1 [2]: 0.132 nM
killing EC50 @ 72 hrs, A704, T-cell donor 110042496, E:T 3:1 [2]: 0.0696 nM
killing EC50 @ 72 hrs, A704, T-cell donor 110042593, E:T 1:1 [2]: 0.114 nM
killing EC50 @ 72 hrs, A704, T-cell donor 110042593, E:T 3:1 [2]: 0.0336 nM
killing EC50 @ 72 hrs, A704, T-cell donor 110044049, E:T 3:1 [2]: 0.0524 nM
killing EC50 @ 72 hrs, A704, T-cell donor 888668965, E:T 3:1 [2]: 0.0454 nM
killing EC50 @ 72 hrs, VMRCRCW, T-cell donor 110040278, E:T 1:1 [2]: 0.243 nM
killing EC50 @ 72 hrs, VMRCRCW, T-cell donor 110040278, E:T 1:3 [2]: 0.456 nM
killing EC50 @ 72 hrs, VMRCRCW, T-cell donor 110040278, E:T 3:1 [2]: 0.0923 nM
killing EC50 @ 72 hrs, VMRCRCW, T-cell donor 110042496, E:T 1:1 [2]: 0.465 nM
killing EC50 @ 72 hrs, VMRCRCW, T-cell donor 110042496, E:T 3:1 [2]: 0.128 nM
killing EC50 @ 72 hrs, VMRCRCW, T-cell donor 110042593, E:T 1:1 [2]: 0.225 nM
killing EC50 @ 72 hrs, VMRCRCW, T-cell donor 110042593, E:T 3:1 [2]: 0.0795 nM
killing EC50 @ 72 hrs, VMRCRCW, T-cell donor 110044049, E:T 1:1 [2]: 0.151 nM
killing EC50 @ 72 hrs, VMRCRCW, T-cell donor 110044049, E:T 1:3 [2]: 0.226 nM
killing EC50 @ 72 hrs, VMRCRCW, T-cell donor 110044049, E:T 3:1 [2]: 0.115 nM
killing EC50 @ 72 hrs, VMRCRCW, T-cell donor 110048457, E:T 1:1 [2]: 0.177 nM
killing EC50 @ 72 hrs, VMRCRCW, T-cell donor 110048457, E:T 1:3 [2]: 0.276 nM
killing EC50 @ 72 hrs, VMRCRCW, T-cell donor 110048457, E:T 3:1 [2]: 0.372 nM
killing EC50 @ 72 hrs, VMRCRCW, T-cell donor 888668965, E:T 1:1 [2]: 0.273 nM
killing EC50 @ 72 hrs, VMRCRCW, T-cell donor 888668965, E:T 1:3 [2]: 0.469 nM
killing EC50 @ 72 hrs, VMRCRCW, T-cell donor 888668965, E:T 3:1 [2]: 0.156 nM
killing EC50 @ 120 hrs, A704, T-cell donor 110040278, E:T 1:1 [2]: 0.041 nM
killing EC50 @ 120 hrs, A704, T-cell donor 110040278, E:T 1:3 [2]: 0.149 nM
killing EC50 @ 120 hrs, A704, T-cell donor 110042496, E:T 1:1 [2]: 0.073 nM
killing EC50 @ 120 hrs, A704, T-cell donor 110042496, E:T 1:3 [2]: 0.191 nM
killing EC50 @ 120 hrs, A704, T-cell donor 110042593, E:T 1:1 [2]: 0.048 nM
killing EC50 @ 120 hrs, A704, T-cell donor 110042593, E:T 1:3 [2]: 0.106 nM
killing EC50 @ 120 hrs, A704, T-cell donor 110044049, E:T 1:1 [2]: 0.125 nM
killing EC50 @ 120 hrs, A704, T-cell donor 888668965, E:T 1:3 [2]: 0.163 nM
killing EC50 @ 120 hrs, VMRCRCW, T-cell donor 110040278, E:T 1:1 [2]: 0.264 nM
killing EC50 @ 120 hrs, VMRCRCW, T-cell donor 110040278, E:T 1:3 [2]: 0.332 nM
killing EC50 @ 120 hrs, VMRCRCW, T-cell donor 110042496, E:T 1:1 [2]: 0.454 nM
killing EC50 @ 120 hrs, VMRCRCW, T-cell donor 110042496, E:T 1:3 [2]: 0.5 nM
killing EC50 @ 120 hrs, VMRCRCW, T-cell donor 110042593, E:T 1:1 [2]: 0.218 nM
killing EC50 @ 120 hrs, VMRCRCW, T-cell donor 110042593, E:T 1:3 [2]: 0.485 nM
killing EC50 @ 120 hrs, VMRCRCW, T-cell donor 110044049, E:T 1:1 [2]: 0.216 nM
killing EC50 @ 120 hrs, VMRCRCW, T-cell donor 110044049, E:T 1:3 [2]: 0.337 nM
killing EC50 @ 120 hrs, VMRCRCW, T-cell donor 110048457, E:T 1:1 [2]: 0.21 nM
killing EC50 @ 120 hrs, VMRCRCW, T-cell donor 110048457, E:T 1:3 [2]: 0.267 nM
killing EC50 @ 120 hrs, VMRCRCW, T-cell donor 888668965, E:T 1:1 [2]: 0.345 nM
killing EC50 @ 120 hrs, VMRCRCW, T-cell donor 888668965, E:T 1:3 [2]: 0.379 nM
